Data reported in the supplement of paper PMC10065799, “High-throughput profiling of sequence recognition by tyrosine kinases and SH2 domains using bacterial peptide display” (eLife, 2023).
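Further: 11-residue human phosphosite peptides and single-mutation variants displayed on the E. coli surface, counted by deep sequencing, each peptide's frequency after selection divided by its frequency in the unselected input library; frequency after pTyr selection over input frequency; kinase dosed for 20-30% of maximal phosphorylation in three min.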

What follows are sequences tested against FGFR3 (UniProt P22607) (assay: phosphorylation enrichment, bacterial display (enrichment ratio); higher = better substrate or ligand; peptides without Tyr show the background).
Sequence of FGFR3 (P22607 whole entry, looked up): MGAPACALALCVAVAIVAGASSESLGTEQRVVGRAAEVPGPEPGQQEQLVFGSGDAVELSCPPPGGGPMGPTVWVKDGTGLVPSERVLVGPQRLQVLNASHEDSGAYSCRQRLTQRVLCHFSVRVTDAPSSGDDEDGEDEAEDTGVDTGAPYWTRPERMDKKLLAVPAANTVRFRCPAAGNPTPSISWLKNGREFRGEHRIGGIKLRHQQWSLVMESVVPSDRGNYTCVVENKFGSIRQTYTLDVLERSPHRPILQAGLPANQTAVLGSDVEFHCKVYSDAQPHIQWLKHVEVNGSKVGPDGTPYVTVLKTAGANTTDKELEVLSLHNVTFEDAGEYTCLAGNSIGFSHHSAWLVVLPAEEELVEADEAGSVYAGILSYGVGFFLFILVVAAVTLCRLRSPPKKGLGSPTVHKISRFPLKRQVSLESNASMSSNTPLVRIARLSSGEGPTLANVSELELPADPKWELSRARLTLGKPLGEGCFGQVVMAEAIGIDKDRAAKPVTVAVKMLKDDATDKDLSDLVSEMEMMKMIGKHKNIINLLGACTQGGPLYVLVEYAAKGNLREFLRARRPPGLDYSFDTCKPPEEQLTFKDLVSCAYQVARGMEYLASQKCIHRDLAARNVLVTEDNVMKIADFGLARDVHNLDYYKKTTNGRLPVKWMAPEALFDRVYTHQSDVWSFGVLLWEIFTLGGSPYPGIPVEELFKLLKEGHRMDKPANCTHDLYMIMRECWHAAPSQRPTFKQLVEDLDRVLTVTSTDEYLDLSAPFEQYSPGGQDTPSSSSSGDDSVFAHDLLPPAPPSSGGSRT
With CLMILHRLKER [PTPRR_Y249_Y249H] the phosphorylation enrichment was 0.575. Work on FLGRNYLETLM [DUS3L_Y610_D609N_YF] yielded a phosphorylation enrichment of 0.567. Sequence EDSEFYKAFEE [CASQ2_Y179_YF] has a phosphorylation enrichment of 0.739. For RVKPIYFHTQG [AR_Y916_K911R], the phosphorylation enrichment was 0.765. In the case of FSALDYKIFFF [WDPCP_Y210_L205F_YF], the phosphorylation enrichment is reported as 0.981. Work on MHLRQYELLGG [GNAS_Y391] yielded a phosphorylation enrichment of 0.705. In the case of TLQTMYGCDVG [HLA-B_Y123_S121T], the phosphorylation enrichment is reported as 0.772. Work on FPKARYRWLVL [APTX_Y214_H215R_YF] yielded a phosphorylation enrichment of 0.534. In the case of QYNIQYSSSAA [ERBB2IP_Y981], the phosphorylation enrichment is reported as 0.648. FFDANCDGKEF [MAPRE2_Y162_Y162C_YF] gave a phosphorylation enrichment of 0.662. Sequence SCTFTYLLGDR [ETHE1_Y38] has a phosphorylation enrichment of 0.575. Sequence LGLTVYADCLA [ABCA4_Y2063] has a phosphorylation enrichment of 0.78. With IWIFHYAKGQP [MPZ_Y82_S78W] the phosphorylation enrichment was 0.768. For FMRGMYFRMKD [PLA2G6_Y541_YF], the phosphorylation enrichment was 0.657. With YLENYYDLEKD [MMP3_Y42_K45E] the phosphorylation enrichment was 5.26. For MNLLGYRHVRS [CHST4_Y359], the phosphorylation enrichment was 0.466. With FPAVGYHKPHI [IDS_Y225_L221P] the phosphorylation enrichment was 0.565. For IFGEEYEEQPR [ZMYM2_Y1033_V1028I], the phosphorylation enrichment was 0.849. GIVKAYYVRAR [AIPL1_Y267] was tested, and the phosphorylation enrichment was 0.548. In the case of SRPTQYSSFSC [SPEM2_Y104], the phosphorylation enrichment is reported as 0.578. DQVEQCKKELE [LMNA_Y259_Y259C] showed a phosphorylation enrichment of 0.733. FSTSPYLLEAA [BRIP1_Y921_YF] was tested, and the phosphorylation enrichment was 0.667. Sequence EATKGYPDDPT [G6PD_Y322_L323P] has a phosphorylation enrichment of 0.609. QSQQAYQEAFE [YWHAZ_Y149] gave a phosphorylation enrichment of 0.693. HNQDDYSFPSR [LDLR_Y845_G844D_YF] showed a phosphorylation enrichment of 0.75. With CTTIHYNYMGN [TP53_Y234_C238G] the phosphorylation enrichment was 0.653. FISVGYVDGTQ [HLA-B_Y51_D54G] was tested, and the phosphorylation enrichment was 0.587. HHTDEYEFDEL [TGM1_Y134_YF] was tested, and the phosphorylation enrichment was 0.852. With PTTKTYFPHFY [HBA1_Y43_D48Y] the phosphorylation enrichment was 1.14. Sequence MKNQKYGRIIM [HSD17B4_Y143_K140N] has a phosphorylation enrichment of 0.386. With HNLFSYPTKHE [MYO3A_Y1396_YF] the phosphorylation enrichment was 0.738. In the case of PSSRDYKHNIK [PIGN_Y227], the phosphorylation enrichment is reported as 0.587. Sequence ETDPRYFDEEF [AKT1_Y437_T435P] has a phosphorylation enrichment of 0.787.

The sequences below were run on Fer (mouse) in the same assay as above.
CLMILHRLKER [PTPRR_Y249_Y249H] gave a phosphorylation enrichment of 0.516. Work on FLGRNYLETLM [DUS3L_Y610_D609N_YF] yielded a phosphorylation enrichment of 0.433. Work on EDSEFYKAFEE [CASQ2_Y179_YF] yielded a phosphorylation enrichment of 0.4. With RVKPIYFHTQG [AR_Y916_K911R] the phosphorylation enrichment was 0.764. For FSALDYKIFFF [WDPCP_Y210_L205F_YF], the phosphorylation enrichment was 0.541. Work on MHLRQYELLGG [GNAS_Y391] yielded a phosphorylation enrichment of 0.507. TLQTMYGCDVG [HLA-B_Y123_S121T] showed a phosphorylation enrichment of 0.838. Work on FPKARYRWLVL [APTX_Y214_H215R_YF] yielded a phosphorylation enrichment of 0.352. For QYNIQYSSSAA [ERBB2IP_Y981], the phosphorylation enrichment was 0.606. FFDANCDGKEF [MAPRE2_Y162_Y162C_YF] showed a phosphorylation enrichment of 0.521. In the case of SCTFTYLLGDR [ETHE1_Y38], the phosphorylation enrichment is reported as 0.426. LGLTVYADCLA [ABCA4_Y2063] was tested, and the phosphorylation enrichment was 0.584. In the case of IWIFHYAKGQP [MPZ_Y82_S78W], the phosphorylation enrichment is reported as 0.459. Sequence FMRGMYFRMKD [PLA2G6_Y541_YF] has a phosphorylation enrichment of 0.399. For YLENYYDLEKD [MMP3_Y42_K45E], the phosphorylation enrichment was 0.781. With MNLLGYRHVRS [CHST4_Y359] the phosphorylation enrichment was 0.409. In the case of FPAVGYHKPHI [IDS_Y225_L221P], the phosphorylation enrichment is reported as 0.436. Work on IFGEEYEEQPR [ZMYM2_Y1033_V1028I] yielded a phosphorylation enrichment of 0.721. In the case of GIVKAYYVRAR [AIPL1_Y267], the phosphorylation enrichment is reported as 0.407. For SRPTQYSSFSC [SPEM2_Y104], the phosphorylation enrichment was 0.486. Work on DQVEQCKKELE [LMNA_Y259_Y259C] yielded a phosphorylation enrichment of 0.518. With FSTSPYLLEAA [BRIP1_Y921_YF] the phosphorylation enrichment was 0.475. With EATKGYPDDPT [G6PD_Y322_L323P] the phosphorylation enrichment was 0.483. With QSQQAYQEAFE [YWHAZ_Y149] the phosphorylation enrichment was 0.597. HNQDDYSFPSR [LDLR_Y845_G844D_YF] was tested, and the phosphorylation enrichment was 0.573. CTTIHYNYMGN [TP53_Y234_C238G] was tested, and the phosphorylation enrichment was 0.763. FISVGYVDGTQ [HLA-B_Y51_D54G] showed a phosphorylation enrichment of 0.358. Sequence HHTDEYEFDEL [TGM1_Y134_YF] has a phosphorylation enrichment of 0.622. For PTTKTYFPHFY [HBA1_Y43_D48Y], the phosphorylation enrichment was 0.825. MKNQKYGRIIM [HSD17B4_Y143_K140N] showed a phosphorylation enrichment of 0.341. In the case of HNLFSYPTKHE [MYO3A_Y1396_YF], the phosphorylation enrichment is reported as 0.624. Work on PSSRDYKHNIK [PIGN_Y227] yielded a phosphorylation enrichment of 0.569. ETDPRYFDEEF [AKT1_Y437_T435P] was tested, and the phosphorylation enrichment was 0.6.

The sequences below were run against Fes (UniProt P07332) in the same assay as above.
Sequence of Fes (P07332 whole entry, looked up): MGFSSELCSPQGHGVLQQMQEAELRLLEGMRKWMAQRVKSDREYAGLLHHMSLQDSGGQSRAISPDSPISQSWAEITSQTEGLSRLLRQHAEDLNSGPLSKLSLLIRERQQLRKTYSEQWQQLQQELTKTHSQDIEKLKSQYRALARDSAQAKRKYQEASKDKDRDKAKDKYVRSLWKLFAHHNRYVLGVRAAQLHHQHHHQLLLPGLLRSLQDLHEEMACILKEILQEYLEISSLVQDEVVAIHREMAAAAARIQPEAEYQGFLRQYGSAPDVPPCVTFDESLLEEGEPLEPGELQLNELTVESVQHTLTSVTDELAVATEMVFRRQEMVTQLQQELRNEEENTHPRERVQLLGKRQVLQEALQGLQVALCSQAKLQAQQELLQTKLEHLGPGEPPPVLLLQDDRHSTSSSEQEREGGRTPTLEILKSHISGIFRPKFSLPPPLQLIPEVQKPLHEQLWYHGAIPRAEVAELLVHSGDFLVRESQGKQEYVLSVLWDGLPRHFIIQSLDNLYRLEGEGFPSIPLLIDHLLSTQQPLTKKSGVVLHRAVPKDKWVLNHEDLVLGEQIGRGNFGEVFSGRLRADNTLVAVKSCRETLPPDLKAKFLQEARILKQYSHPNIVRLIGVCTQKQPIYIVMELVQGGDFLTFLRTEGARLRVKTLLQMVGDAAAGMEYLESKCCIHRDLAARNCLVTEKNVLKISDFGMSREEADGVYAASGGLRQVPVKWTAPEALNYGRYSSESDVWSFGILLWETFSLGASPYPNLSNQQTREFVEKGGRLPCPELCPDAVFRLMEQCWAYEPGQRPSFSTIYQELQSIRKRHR
With CLMILHRLKER [PTPRR_Y249_Y249H] the phosphorylation enrichment was 1.19. For FLGRNYLETLM [DUS3L_Y610_D609N_YF], the phosphorylation enrichment was 0.701. EDSEFYKAFEE [CASQ2_Y179_YF] gave a phosphorylation enrichment of 1.21. RVKPIYFHTQG [AR_Y916_K911R] gave a phosphorylation enrichment of 1.69. With FSALDYKIFFF [WDPCP_Y210_L205F_YF] the phosphorylation enrichment was 1.64. MHLRQYELLGG [GNAS_Y391] was tested, and the phosphorylation enrichment was 0.869. TLQTMYGCDVG [HLA-B_Y123_S121T] gave a phosphorylation enrichment of 1.15. FPKARYRWLVL [APTX_Y214_H215R_YF] showed a phosphorylation enrichment of 0.72. Work on QYNIQYSSSAA [ERBB2IP_Y981] yielded a phosphorylation enrichment of 0.964. In the case of FFDANCDGKEF [MAPRE2_Y162_Y162C_YF], the phosphorylation enrichment is reported as 1.27. SCTFTYLLGDR [ETHE1_Y38] showed a phosphorylation enrichment of 1.2. For LGLTVYADCLA [ABCA4_Y2063], the phosphorylation enrichment was 1.39. For IWIFHYAKGQP [MPZ_Y82_S78W], the phosphorylation enrichment was 1.55. For FMRGMYFRMKD [PLA2G6_Y541_YF], the phosphorylation enrichment was 1.12. YLENYYDLEKD [MMP3_Y42_K45E] gave a phosphorylation enrichment of 1.47. For MNLLGYRHVRS [CHST4_Y359], the phosphorylation enrichment was 0.738. FPAVGYHKPHI [IDS_Y225_L221P] gave a phosphorylation enrichment of 0.601. With IFGEEYEEQPR [ZMYM2_Y1033_V1028I] the phosphorylation enrichment was 1.28. GIVKAYYVRAR [AIPL1_Y267] gave a phosphorylation enrichment of 0.771. SRPTQYSSFSC [SPEM2_Y104] showed a phosphorylation enrichment of 0.986. In the case of DQVEQCKKELE [LMNA_Y259_Y259C], the phosphorylation enrichment is reported as 1.27. FSTSPYLLEAA [BRIP1_Y921_YF] gave a phosphorylation enrichment of 0.962. For EATKGYPDDPT [G6PD_Y322_L323P], the phosphorylation enrichment was 1.05. In the case of QSQQAYQEAFE [YWHAZ_Y149], the phosphorylation enrichment is reported as 1.22. In the case of HNQDDYSFPSR [LDLR_Y845_G844D_YF], the phosphorylation enrichment is reported as 0.77. Sequence CTTIHYNYMGN [TP53_Y234_C238G] has a phosphorylation enrichment of 0.987. For FISVGYVDGTQ [HLA-B_Y51_D54G], the phosphorylation enrichment was 0.807. HHTDEYEFDEL [TGM1_Y134_YF] was tested, and the phosphorylation enrichment was 1.3. Sequence PTTKTYFPHFY [HBA1_Y43_D48Y] has a phosphorylation enrichment of 0.873. MKNQKYGRIIM [HSD17B4_Y143_K140N] showed a phosphorylation enrichment of 0.646. HNLFSYPTKHE [MYO3A_Y1396_YF] gave a phosphorylation enrichment of 0.989. For PSSRDYKHNIK [PIGN_Y227], the phosphorylation enrichment was 0.572. ETDPRYFDEEF [AKT1_Y437_T435P] was tested, and the phosphorylation enrichment was 1.31.

The sequences below were run against Fyn (UniProt P06241) in the same assay as above.
Sequence of Fyn (P06241 whole entry, looked up): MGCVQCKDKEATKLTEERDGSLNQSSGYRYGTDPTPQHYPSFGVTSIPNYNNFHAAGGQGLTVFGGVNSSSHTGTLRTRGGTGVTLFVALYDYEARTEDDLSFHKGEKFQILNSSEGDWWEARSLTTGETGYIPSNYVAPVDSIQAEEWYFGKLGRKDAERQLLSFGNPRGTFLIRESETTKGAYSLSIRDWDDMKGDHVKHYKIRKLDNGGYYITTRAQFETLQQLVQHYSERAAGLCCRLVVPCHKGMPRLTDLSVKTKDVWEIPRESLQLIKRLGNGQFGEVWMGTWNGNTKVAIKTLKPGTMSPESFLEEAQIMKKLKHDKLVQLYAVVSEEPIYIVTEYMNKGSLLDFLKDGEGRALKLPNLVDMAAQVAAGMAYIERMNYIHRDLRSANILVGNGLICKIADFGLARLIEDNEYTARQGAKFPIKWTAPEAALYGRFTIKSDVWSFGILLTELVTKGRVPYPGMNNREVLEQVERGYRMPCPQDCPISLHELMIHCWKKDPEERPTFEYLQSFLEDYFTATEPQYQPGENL
CLMILHRLKER [PTPRR_Y249_Y249H] gave a phosphorylation enrichment of 0.464. For FLGRNYLETLM [DUS3L_Y610_D609N_YF], the phosphorylation enrichment was 0.454. For EDSEFYKAFEE [CASQ2_Y179_YF], the phosphorylation enrichment was 0.442. With RVKPIYFHTQG [AR_Y916_K911R] the phosphorylation enrichment was 0.642. For FSALDYKIFFF [WDPCP_Y210_L205F_YF], the phosphorylation enrichment was 0.416. MHLRQYELLGG [GNAS_Y391] was tested, and the phosphorylation enrichment was 0.464. TLQTMYGCDVG [HLA-B_Y123_S121T] showed a phosphorylation enrichment of 0.554. FPKARYRWLVL [APTX_Y214_H215R_YF] gave a phosphorylation enrichment of 0.386. For QYNIQYSSSAA [ERBB2IP_Y981], the phosphorylation enrichment was 0.702. In the case of FFDANCDGKEF [MAPRE2_Y162_Y162C_YF], the phosphorylation enrichment is reported as 0.973. Sequence SCTFTYLLGDR [ETHE1_Y38] has a phosphorylation enrichment of 0.491. For LGLTVYADCLA [ABCA4_Y2063], the phosphorylation enrichment was 0.589. IWIFHYAKGQP [MPZ_Y82_S78W] gave a phosphorylation enrichment of 0.49. FMRGMYFRMKD [PLA2G6_Y541_YF] gave a phosphorylation enrichment of 0.455. Work on YLENYYDLEKD [MMP3_Y42_K45E] yielded a phosphorylation enrichment of 4.51. MNLLGYRHVRS [CHST4_Y359] gave a phosphorylation enrichment of 0.403. Work on FPAVGYHKPHI [IDS_Y225_L221P] yielded a phosphorylation enrichment of 0.472. Sequence IFGEEYEEQPR [ZMYM2_Y1033_V1028I] has a phosphorylation enrichment of 0.535. GIVKAYYVRAR [AIPL1_Y267] showed a phosphorylation enrichment of 0.394. For SRPTQYSSFSC [SPEM2_Y104], the phosphorylation enrichment was 0.627. Sequence DQVEQCKKELE [LMNA_Y259_Y259C] has a phosphorylation enrichment of 0.52. For FSTSPYLLEAA [BRIP1_Y921_YF], the phosphorylation enrichment was 3.49. EATKGYPDDPT [G6PD_Y322_L323P] was tested, and the phosphorylation enrichment was 0.479. With QSQQAYQEAFE [YWHAZ_Y149] the phosphorylation enrichment was 0.397. Work on HNQDDYSFPSR [LDLR_Y845_G844D_YF] yielded a phosphorylation enrichment of 0.737. CTTIHYNYMGN [TP53_Y234_C238G] was tested, and the phosphorylation enrichment was 0.402. FISVGYVDGTQ [HLA-B_Y51_D54G] gave a phosphorylation enrichment of 0.315. In the case of HHTDEYEFDEL [TGM1_Y134_YF], the phosphorylation enrichment is reported as 0.725. PTTKTYFPHFY [HBA1_Y43_D48Y] gave a phosphorylation enrichment of 0.884. For MKNQKYGRIIM [HSD17B4_Y143_K140N], the phosphorylation enrichment was 0.424. Work on HNLFSYPTKHE [MYO3A_Y1396_YF] yielded a phosphorylation enrichment of 0.631. With PSSRDYKHNIK [PIGN_Y227] the phosphorylation enrichment was 0.456. ETDPRYFDEEF [AKT1_Y437_T435P] showed a phosphorylation enrichment of 0.565.
